Source: patent publication EP4725963A1 (Jiangsu Hengrui Pharmaceuticals Co., Ltd., dated 2026)
Positions count from the first letter of the chain named. Where two headings read alike, the source gives them in different places.

Assays:
[1] = target: T1, human NPR1 full-length protein overexpressed on CHO-K1 cells (human, UniProt P16066 33-1061); assay: cell-based or functional assay
T1 sequence: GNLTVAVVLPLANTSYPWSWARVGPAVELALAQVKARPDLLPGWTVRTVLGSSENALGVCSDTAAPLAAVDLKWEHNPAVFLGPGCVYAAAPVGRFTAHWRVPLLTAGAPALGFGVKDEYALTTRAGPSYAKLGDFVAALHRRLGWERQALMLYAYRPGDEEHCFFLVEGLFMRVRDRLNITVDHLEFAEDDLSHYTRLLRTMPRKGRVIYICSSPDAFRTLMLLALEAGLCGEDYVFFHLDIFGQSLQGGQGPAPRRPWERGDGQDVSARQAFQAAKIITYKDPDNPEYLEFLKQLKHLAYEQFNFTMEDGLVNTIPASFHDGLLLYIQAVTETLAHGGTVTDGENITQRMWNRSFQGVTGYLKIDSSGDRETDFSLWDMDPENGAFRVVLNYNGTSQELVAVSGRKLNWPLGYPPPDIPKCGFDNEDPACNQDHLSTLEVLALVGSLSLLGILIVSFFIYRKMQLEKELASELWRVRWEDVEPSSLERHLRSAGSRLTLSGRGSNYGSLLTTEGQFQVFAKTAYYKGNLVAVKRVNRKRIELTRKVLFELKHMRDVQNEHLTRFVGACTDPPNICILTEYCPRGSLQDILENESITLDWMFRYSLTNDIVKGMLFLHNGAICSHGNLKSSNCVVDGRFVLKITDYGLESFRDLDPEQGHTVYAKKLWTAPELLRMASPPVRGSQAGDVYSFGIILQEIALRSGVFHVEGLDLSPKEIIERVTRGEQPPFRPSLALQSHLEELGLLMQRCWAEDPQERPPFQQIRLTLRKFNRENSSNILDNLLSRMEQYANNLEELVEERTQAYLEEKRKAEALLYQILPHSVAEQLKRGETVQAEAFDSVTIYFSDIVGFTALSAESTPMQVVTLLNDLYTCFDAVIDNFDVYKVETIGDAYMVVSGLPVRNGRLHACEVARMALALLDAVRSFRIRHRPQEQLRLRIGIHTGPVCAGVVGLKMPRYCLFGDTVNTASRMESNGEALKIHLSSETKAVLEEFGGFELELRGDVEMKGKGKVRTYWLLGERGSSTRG

hNPR2 = target: T2, hNPR2 (human, UniProt P20594 23-458, limits assumed); assay: ELISA, plate coated with 4 µg/mL antigen
T2 construct: Commercial protein; construct not described; also called hNPR2 antigen
T2 sequence (looked up): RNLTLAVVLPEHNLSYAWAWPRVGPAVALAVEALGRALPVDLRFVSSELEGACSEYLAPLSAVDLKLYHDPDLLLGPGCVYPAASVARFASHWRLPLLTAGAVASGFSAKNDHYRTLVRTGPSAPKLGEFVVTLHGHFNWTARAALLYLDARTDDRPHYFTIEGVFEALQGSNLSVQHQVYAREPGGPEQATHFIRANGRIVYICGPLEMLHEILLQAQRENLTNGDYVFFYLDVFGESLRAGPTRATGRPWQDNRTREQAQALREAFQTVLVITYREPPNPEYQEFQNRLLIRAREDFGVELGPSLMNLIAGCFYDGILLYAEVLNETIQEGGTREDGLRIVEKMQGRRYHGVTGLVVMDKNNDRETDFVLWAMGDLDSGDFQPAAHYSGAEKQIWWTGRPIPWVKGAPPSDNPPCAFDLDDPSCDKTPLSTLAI

[2] = target: T3, fusion protein of the human NPR1 protein extracellular domain and human-IgG1-Fc (human); assay: ELISA, plate coated with 4 µg/mL hNPR1 antigen
T3 construct: also called hNPR1-hFc; hNPR1
T3 sequence (chain, as listed by the source limits assumed): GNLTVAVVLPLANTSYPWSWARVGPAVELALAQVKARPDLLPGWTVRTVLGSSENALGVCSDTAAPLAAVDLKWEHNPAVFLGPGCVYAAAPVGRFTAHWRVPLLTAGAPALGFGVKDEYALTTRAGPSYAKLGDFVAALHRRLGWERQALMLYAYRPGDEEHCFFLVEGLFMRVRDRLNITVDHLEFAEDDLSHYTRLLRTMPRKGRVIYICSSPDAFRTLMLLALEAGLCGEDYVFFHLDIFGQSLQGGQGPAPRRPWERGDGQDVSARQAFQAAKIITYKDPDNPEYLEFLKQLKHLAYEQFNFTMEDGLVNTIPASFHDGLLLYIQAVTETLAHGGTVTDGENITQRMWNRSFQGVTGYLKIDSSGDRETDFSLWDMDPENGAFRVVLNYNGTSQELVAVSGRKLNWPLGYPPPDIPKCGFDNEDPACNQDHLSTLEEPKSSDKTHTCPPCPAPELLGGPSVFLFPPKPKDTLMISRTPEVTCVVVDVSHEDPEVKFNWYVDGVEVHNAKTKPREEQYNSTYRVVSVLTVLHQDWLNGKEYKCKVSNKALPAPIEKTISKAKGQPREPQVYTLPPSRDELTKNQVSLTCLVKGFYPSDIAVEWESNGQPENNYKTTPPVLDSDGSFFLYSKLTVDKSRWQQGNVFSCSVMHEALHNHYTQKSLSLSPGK

[3] = target: T1, human NPR1 full-length protein …; assay: cell-based or functional assay; remark: listed apart in the source
[4] = target: T1, human NPR1 full-length protein …; assay: cell-based or functional assay; remark: listed apart in the source
[5] = target: T1, human NPR1 full-length protein …; assay: cell-based or functional assay; remark: listed apart in the source
[6] = target: T1, human NPR1 full-length protein …; assay: cell-based or functional assay; remark: listed apart in the source
[7] = target: T4, cynomolgus monkey NPR1 full-length protein overexpressed on CHO-K1 cells (cynomolgus monkey); assay: flow cytometry on cNPR1-expressing CHO-K1 cells, antibody pre-mixed with 10 nM ANP
T4 construct: whole, on cells; also called cNPR1-CHOK1; cNPR1 CHO-K1

[8] = target: T4, cynomolgus monkey NPR1 full-length …; assay: flow cytometry on cNPR1-expressing CHO-K1 cells, without ANP
[9] = target: T1, human NPR1 full-length protein …; assay: flow cytometry on hNPR1-expressing CHO-K1 cells, antibody pre-mixed with 10 nM ANP
[10] = target: T1, human NPR1 full-length protein …; assay: flow cytometry on hNPR1-expressing CHO-K1 cells, without ANP
[11] = target: T1, human NPR1 full-length protein …; assay: cell-based or functional assay; remark: listed apart in the source

B1: Hu128H3L1-6 (antibody, human IgG1, kappa, L234A L235A, V domains shown)
VH: EVQLVQSGAEVKKPGASVKVSCKASGYTFTSYWMHWVRQAPGQGLEWMGRIDPNSGVTKYNEKFKSRVTLTVDKPSSPAYMELSSLRSEDTAVYYCARSSYLGRYFDVWGQGTTVTVSS
VL: EIVLTQSPATLSLSPGERATLKCSATSSVSYMYWYQQKPGQAPRLLIYDTYNLGSRIPARFSGSGSGTDYTLTISRLEPEDFAVYYCQQWSSYPPTFGQGTKLEIKR
notes: Humanized, human IgG1 LALA/kappa
Ratio (without ANP) of NPR1 antigens remaining on the cell surface after endocytosis to the initial number, 10 min, 20 µg/mL [1]: 1.3 ratio | Ratio (without ANP) of NPR1 antigens remaining on the cell surface after endocytosis to the initial number, 1 h, 20 µg/mL [1]: 0.91 ratio | Ratio (without ANP) of NPR1 antigens remaining on the cell surface after endocytosis to the initial number, 7 hrs, 20 µg/mL [1]: 0.96 ratio | Ratio (without ANP) of NPR1 antigens remaining on the cell surface after endocytosis to the initial number, 24 hrs, 20 µg/mL [1]: 0.82 ratio | binding result (hNPR2): no binding (tested: 20 µg/mL (highest concentration)) | EC50 [2]: 1.84 nM | cGMP production: EC50 [3]: 7.9 nM

B2: Hu135H3L1 (antibody, human IgG1, kappa, L234A L235A, V domains shown)
VH: DVKLVESGEGLVKPGGSLRLSCAASGFSISTYGMSWVRQAPGKRLEWVAYINSGGNYIYYADSVKGRFTISRDNAKNSLYLQMNSLRAEDTAVYYCTRDRTTIVVHWYFDVWGQGTTVTVSS
VL: DIQLTQSPSSLSASVGDRVTITCSASSSLNFMHWYQQKPGKSPKRWIYDTSKLASGVPSRFSGSGSGTDYTLTISSLQPEDFATYYCHQRSSTFGGGTKVEIKR
notes: Humanized, human IgG1 LALA/kappa; also called Hul35H3L1
Ratio (without ANP) of NPR1 antigens remaining on the cell surface after endocytosis to the initial number, 10 min, 20 µg/mL [1]: 0.85 ratio | Ratio (without ANP) of NPR1 antigens remaining on the cell surface after endocytosis to the initial number, 1 h, 20 µg/mL [1]: 0.67 ratio | Ratio (without ANP) of NPR1 antigens remaining on the cell surface after endocytosis to the initial number, 7 hrs, 20 µg/mL [1]: 0.63 ratio | Ratio (without ANP) of NPR1 antigens remaining on the cell surface after endocytosis to the initial number, 24 hrs, 20 µg/mL [1]: 0.76 ratio | binding result (hNPR2): no binding (tested: 20 µg/mL (highest concentration)) | EC50 [2]: 0.02 nM | cGMP production: EC50 [4]: 171 nM | cGMP production: Emax [4]: 0.43 | cGMP production: Emin [4]: 0.179

B3: Hu140H5L5-11 (antibody, human IgG1, kappa, L234A L235A, V domains shown)
VH: B1 VH with E1Q, S100G, Y101G, G103R
VL: B1 VL with T20Q, K22S, T26S, G54A, R56G, I57V, A59D, D69S, Q99A
notes: as for B1
Ratio (without ANP) of NPR1 antigens remaining on the cell surface after endocytosis to the initial number, 10 min, 20 µg/mL [1]: 1.31 ratio | Ratio (without ANP) of NPR1 antigens remaining on the cell surface after endocytosis to the initial number, 1 h, 20 µg/mL [1]: 0.86 ratio | Ratio (without ANP) of NPR1 antigens remaining on the cell surface after endocytosis to the initial number, 7 hrs, 20 µg/mL [1]: 1.11 ratio | Ratio (without ANP) of NPR1 antigens remaining on the cell surface after endocytosis to the initial number, 24 hrs, 20 µg/mL [1]: 1.02 ratio | cGMP production: EC50 [5]: 36 nM | binding result (hNPR2): no binding (tested: 20 µg/mL (highest concentration)) | EC50 [2]: 8.65 nM

B4: CHI-127 (antibody, human IgG1, kappa, V domains shown)
VH: QAYLQQSGPELVKPGASVKISCKASGYSFTGYFMNWVMQSHGKSLEWIGRINPYNGDTFYNQKFKGKATLTVDKSSSTVHMELRSLASEDSAVYYCARRGYGNRGYWYFDVWGAGTTVTVSS
VL: NIVLTQSPASLAVSLGQRATISCRASESVDSYGNSFMHWYQQKPGQPPKVLIYLASTLESGVPARFSGSGSRTDFTLTIDPVEADDAATYYCQQNNEDPLTFGAGTKLELKR
notes: Chimeric human IgG1/kappa; also called NPR1-CHAb-SFM-127-1; chimeric antibody of murine antibody 127
cGMP production: EC50 [6]: 42.7 nM | cGMP production: Emax [6]: 0.43 | cGMP production: Emin [6]: 0.077 | EC50 [7]: 1.28 nM | EC50 [8]: 1.19 nM | EC50 [9]: 1.74 nM | EC50 [10]: 1.73 nM

B5: Hu128H3L1 (antibody, human IgG1, kappa, L234A L235A, V domains shown)
VH: B1 VH
VL: B1 VL with K22S, G54A
cGMP production: EC50 [11]: 5.8 nM

B6: Hu128H3L2 (antibody, human IgG1, kappa, L234A L235A, V domains shown)
VH: B1 VH
VL: B1 VL with K22S, Q41S, A42S, G54A
cGMP production: EC50 [11]: 4.6 nM

B7: Hu140H5L5 (antibody, human IgG1, kappa, L234A L235A, V domains shown)
VH: B1 VH with E1Q, S100G, Y101G, G103R
VL: B1 VL with K22S, T26S, G54A, R56G, I57V, D69S, Q99A
cGMP production: EC50 [5]: 40.9 nM

B8: CHI-135 (antibody, human IgG1, kappa, V domains shown)
VH: DVKLVESGEGLVKPGGSLKLSCVASGFSISTYGMSWVRQTPEKRLEWVAYINSGGNYIYYADTVKGRFTISRDNARNTLYLQMSSLKSEDTAMYYCTRDRTTIVVHWYFDVWGTGTTVTVSS
VL: QIVLTQSPAIMSASPGEKVTMTCSASSSLNFMHWYQQKPGTSPKRWIYDTSKLASGVPARFSGSGSGTSYSLTISSMEAEDAATYYCHQRSSTFGGGTKLELKR
notes: Chimeric human IgG1/kappa; also called NPR1-CHAb-SFM-135; chimeric antibody of murine antibody 135
EC50 [7]: 1.63 nM | EC50 [8]: 3.59 nM | EC50 [9]: 2.49 nM | EC50 [10]: 4.39 nM
